We go through 2 substances from US20190375831A1.

In assay [1] the target is recombinant PfCSP (rPfCSP, residues 21-375) (Plasmodium falciparum) (UniProt P19597). The assay can be described thus: ELISA on coated rPfCSP, OD405nm. In general terms: In an ELISA, binding on a coated surface is turned into a signal by an enzyme label.
Assay [2] shares this target. The assay can be described thus: biolayer interferometry, biotinylated CSP on the sensor, whole IgG in solution; apparent KD. In general terms: Biolayer interferometry detects binding as a change in optical thickness at a sensor tip.
The target is the same in assay [3].

recombinant PfCSP (rPfCSP, residues 21-375) (Plasmodium falciparum), sequence (P19597 21-375): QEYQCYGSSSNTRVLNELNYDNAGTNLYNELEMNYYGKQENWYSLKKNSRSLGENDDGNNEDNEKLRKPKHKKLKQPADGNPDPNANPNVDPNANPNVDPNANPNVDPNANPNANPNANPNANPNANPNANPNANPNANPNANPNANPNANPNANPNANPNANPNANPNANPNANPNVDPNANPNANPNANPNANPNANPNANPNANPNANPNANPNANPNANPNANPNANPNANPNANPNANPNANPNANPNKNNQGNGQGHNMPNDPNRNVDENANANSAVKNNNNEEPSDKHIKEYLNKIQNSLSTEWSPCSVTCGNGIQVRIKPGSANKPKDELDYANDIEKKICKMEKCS

Take mAb2A10 (antibody): the EC50 (read off the curve) in assay [1] is 0.04 µg/mL. Moreover, the Kd in assay [2] turned out to be 0.15 nM.
Consider mAb CIS43 (antibody), for which the EC50 (read off the curve) in assay [1] came out at 0.003 µg/mL. Besides, the Kd in assay [2] stood at 0.91 nM. In assay [3], the -TΔS1 stood at 8.4 kcal/mol, the -TΔS2 was 0.1 kcal/mol, the N1 (stoichiometry) was determined as 1.2 and the N2 (stoichiometry) is 5.1. Also, in assay [3], the ΔH1 is -19.5 kcal/mol and the ΔH2 is -10.2 kcal/mol.

What is called EC50 (read off the curve) is the concentration that produces a half-maximal response.
